# Laboratory results published in patent US9809653B2, “Anti-LAMP1 antibodies and antibody drug conjugates, and uses thereof” (SANOFI, priority 2012, dated 2017).
# T1: Hybrid LAMP1 / glycan-deleted LAMP1 transmembrane proteins (Homo sapiens, UniProt P11279, D66S/F65I/K57A/K61Q/M63V/N62I/P60S/S58N/T64N)
# T1 construct: expressed in transfected cells; host or cells: 293-F (HEK293-derived), transient transfection
# T1 sequence (P11279 with tags, fused parts or gaps K57A/S58N/P60S/K61Q/N62I/M63V/T64N/F65I/D66S): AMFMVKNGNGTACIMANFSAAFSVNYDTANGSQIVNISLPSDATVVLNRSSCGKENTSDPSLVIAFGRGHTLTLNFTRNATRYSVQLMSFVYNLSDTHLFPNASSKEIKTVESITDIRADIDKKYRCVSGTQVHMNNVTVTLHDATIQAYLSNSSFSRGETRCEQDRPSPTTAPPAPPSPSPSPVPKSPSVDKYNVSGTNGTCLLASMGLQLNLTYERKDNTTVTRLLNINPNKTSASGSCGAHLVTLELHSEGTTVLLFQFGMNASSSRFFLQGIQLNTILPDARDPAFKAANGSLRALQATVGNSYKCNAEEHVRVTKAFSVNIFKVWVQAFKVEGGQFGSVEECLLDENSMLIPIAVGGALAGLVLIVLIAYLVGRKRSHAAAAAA
# T2: Hybrid LAMP1 / glycan-deleted LAMP1 transmembrane proteins (Mus musculus, UniProt P11438, E181G/G176S/K100R/K180R/L93T/N177S/S175N/T102A/Y92H)
# T2 construct: expressed in transfected cells; host or cells: 293-F (HEK293-derived), transient transfection
# T2 sequence (P11438 with tags, fused parts or gaps Y92H/L93T/K100R/T102A/S175N/G176S/N177S/K180R/E181G): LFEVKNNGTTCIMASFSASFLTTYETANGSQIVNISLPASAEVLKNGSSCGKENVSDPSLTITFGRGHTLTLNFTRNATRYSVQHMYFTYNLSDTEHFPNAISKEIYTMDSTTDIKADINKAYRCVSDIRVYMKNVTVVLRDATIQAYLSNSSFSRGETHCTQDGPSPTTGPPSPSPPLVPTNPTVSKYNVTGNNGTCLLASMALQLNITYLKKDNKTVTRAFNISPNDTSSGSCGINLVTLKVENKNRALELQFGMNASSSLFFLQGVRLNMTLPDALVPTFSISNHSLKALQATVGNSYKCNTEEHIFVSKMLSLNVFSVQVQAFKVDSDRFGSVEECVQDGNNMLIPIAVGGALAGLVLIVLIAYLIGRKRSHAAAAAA
# T3: Hybrid LAMP1 / glycan-deleted LAMP1 transmembrane proteins (Homo sapiens, UniProt P11279, D70S/L75K/R77G/S69A/T72E/V74L)
# T3 construct: expressed in transfected cells; host or cells: 293-F (HEK293-derived), transient transfection
# T3 sequence (P11279 with tags, fused parts or gaps S69A/D70S/T72E/V74L/L75K/R77G): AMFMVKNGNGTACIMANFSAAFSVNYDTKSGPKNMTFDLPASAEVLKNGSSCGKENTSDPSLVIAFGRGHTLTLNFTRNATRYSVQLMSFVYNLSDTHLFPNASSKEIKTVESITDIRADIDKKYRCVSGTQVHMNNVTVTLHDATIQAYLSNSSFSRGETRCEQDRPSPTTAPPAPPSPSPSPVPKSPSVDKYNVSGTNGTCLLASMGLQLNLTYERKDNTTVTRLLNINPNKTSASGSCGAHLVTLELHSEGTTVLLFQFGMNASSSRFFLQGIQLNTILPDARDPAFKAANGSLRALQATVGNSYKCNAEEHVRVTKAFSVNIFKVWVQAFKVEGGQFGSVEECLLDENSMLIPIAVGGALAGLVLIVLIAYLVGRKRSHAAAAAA
# T4: Hybrid LAMP1 / glycan-deleted LAMP1 transmembrane proteins (Mus musculus, UniProt P11438, E181G/G176S/K180R/N177S/S175N)
# T4 construct: expressed in transfected cells; host or cells: 293-F (HEK293-derived), transient transfection
# T4 sequence (P11438 with tags, fused parts or gaps S175N/G176S/N177S/K180R/E181G): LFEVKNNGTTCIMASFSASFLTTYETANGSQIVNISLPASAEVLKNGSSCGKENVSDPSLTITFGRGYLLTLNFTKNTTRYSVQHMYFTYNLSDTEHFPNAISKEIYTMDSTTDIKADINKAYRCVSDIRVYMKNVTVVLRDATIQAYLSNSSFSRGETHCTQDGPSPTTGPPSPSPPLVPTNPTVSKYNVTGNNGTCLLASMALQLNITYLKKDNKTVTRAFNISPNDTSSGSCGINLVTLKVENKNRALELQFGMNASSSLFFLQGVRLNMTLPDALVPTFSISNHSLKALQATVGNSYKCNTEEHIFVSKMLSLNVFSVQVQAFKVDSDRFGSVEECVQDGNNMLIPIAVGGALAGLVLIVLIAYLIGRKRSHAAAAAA
# B1: MAb1: murine monoclonal anti-LAMP1 antibody, VH SEQ ID NO: 1, VL SEQ ID NO: 5 (antibody, V domains shown)
# VH: QVQLQQSGAELVKPGASVKMSCKASGYIFTNYNIHWVKKSPGQGLEWIGAIYPGNGDAPYSQKFKDKATLTADKSSSTTYMQLSRLTSEDSAVYYCVRANWDVAFAYWGQGTLVSVSA
# VL: DIQMTQSPPSLSASLGGKVTITCKASQDIDRYMAWYQDKPGKGPRLLIHDTSTLQPGIPSRFSGSGSGRDYSFSISNLEPEDIATYYCLQYDNLWTFGGGTKLEIK
# modifications: Antibody Fragment; antibody fragment
# B2: MAb2: murine monoclonal anti-LAMP1 antibody, VH SEQ ID NO: 8, VL SEQ ID NO: 12 (antibody, V domains shown)
# VH: QVQLQQSAAELARPGASVKMSCKASGYTFTSYTMHWVKQRPGQGLEWIGYFNPSSGYPEYNQKFKDKTTLTADKSSNTAFIQLNSLTSEDSAVYYCSRGYYYGSRGYALDFWGQGASVTVSS
# VL: NIVLTQSPVSLAVSLGQRATISCRASESVDINGNTFMHWYQQKPGQSPKLVIYAASNIESGVPARFSGSGSSTDFTFTIDPVEADDVATYYCQQNIEDPWTFGGGTKVEIK
# modifications: antibod fragment; antibody fragment
# Tests used:
# [1] = molecular target: T1, Hybrid LAMP1 / glycan-deleted LAMP1 transmembrane proteins; assay: Binding onto membrane-anchored hybrid or mutated LAMP1 proteins (293-F cells) by flow cytometry; set-up: species or system human/mouse; conditions: pXL6014 LAMP1_mseq3_ΔGYQTI; Table 18
# Description: (§1) Different LAMP1 proteins were expressed at the cell membrane of HEK293 cells after transient expression from mammalian plasmids encoding the entire coding sequence of LAMP1 deleted of the intracellular lysosome-targeting motif GYQTI and substituted by a 5-Ala repeat sequence.
# (§2) Two days post transfection cells were processed, analyzed by flow cytometry (Guava® easyCyte™ 8HT) as mentioned in example 4.7, and the mean fluorescence was recorded. This fluorescence represents a semi-quantitative assessment of binding.
# [2] = molecular target: T2, Hybrid LAMP1 / glycan-deleted LAMP1 transmembrane proteins; assay: as above; set-up: species or system human/mouse; conditions: pXL6041 mLAMP1_hseq6-11_ΔGYQTI
# Description: as §1, §2
# [3] = molecular target: T3, Hybrid LAMP1 / glycan-deleted LAMP1 transmembrane proteins; assay: as above; set-up: species or system human/mouse; conditions: pXL6015 LAMP1_mseq4_ΔGYQTI; Table 18
# Description: as §1, §2
# [4] = molecular target: T4, Hybrid LAMP1 / glycan-deleted LAMP1 transmembrane proteins; assay: as above; set-up: species or system human/mouse; conditions: pXL6048 mLAMP1_hseq11_ΔGYQTI
# Description: as §1, §2
# [5] = tested on: Hybrid LAMP1 / glycan-deleted LAMP1 transmembrane proteins; assay: as above; set-up: species or system human/mouse; conditions: pXL6012 LAMP1_mseq1_ΔGYQTI; Table 18
# Description: as §1, §2
# Target sequence in this assay (as listed by the source, stated change not applied): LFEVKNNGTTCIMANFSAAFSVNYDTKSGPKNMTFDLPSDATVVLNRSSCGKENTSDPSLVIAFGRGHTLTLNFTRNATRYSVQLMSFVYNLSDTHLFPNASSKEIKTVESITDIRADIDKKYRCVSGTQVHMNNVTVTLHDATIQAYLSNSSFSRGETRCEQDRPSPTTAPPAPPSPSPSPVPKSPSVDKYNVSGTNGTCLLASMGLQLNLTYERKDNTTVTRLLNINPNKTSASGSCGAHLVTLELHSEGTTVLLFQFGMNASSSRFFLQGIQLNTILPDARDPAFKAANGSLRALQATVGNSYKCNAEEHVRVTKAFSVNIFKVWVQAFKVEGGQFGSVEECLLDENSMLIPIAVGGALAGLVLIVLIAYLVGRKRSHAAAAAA
# [6] = tested on: cynomolgus LAMP1 expressed at the cell surface of recombinant HCT116; assay: FACS on recombinant HCT116 stable clones expressing cynomolgus LAMP1; type: binding, cynomolgus monkey; conditions: HCT116 stable clone
# Description: HCT116 cells were infected by a lentiviral vector allowing stable integration of the human or the cynomolgus LAMP1 CDS in genomic DNA of cells. Individual clones with different densities of human or cynomolgus LAMP1 cell surface localization were derived from a pool of HCT116 infected cells. […] 100 μL/well of goat anti-human IgG conjugated with Alexa488 (Invitrogen; #A11013) was added for 1 h at 4° C. and washed two times with PBS 1% BSA. The antibody binding was evaluated after centrifugation and resuspension of cells in 100 μl fixing solution (paraformaldehyde at 4% in PBS). Samples were read using Galaxy® Flow Cytometry System (Partec). EC50 values were estimated using BIOST@T-SPEED software.
# 100 μL/well of goat anti-mouse IgG conjugated with Alexa647 (Invitrogen; #A2135) was added for 45 min at 4° C. and washed three times with PBS 1% BSA. The antibody binding was evaluated after centrifugation and re-suspension of cells by adding 200 μl/well PBS 1% BSA and read using Guava® easyCyte™ 8HT Flow Cytometry System. EC50 values were estimated using BIOST@T-SPEED software.
# Sequence of cynomolgus LAMP1 expressed at the cell surface of recombinant HCT116 (as listed by the source): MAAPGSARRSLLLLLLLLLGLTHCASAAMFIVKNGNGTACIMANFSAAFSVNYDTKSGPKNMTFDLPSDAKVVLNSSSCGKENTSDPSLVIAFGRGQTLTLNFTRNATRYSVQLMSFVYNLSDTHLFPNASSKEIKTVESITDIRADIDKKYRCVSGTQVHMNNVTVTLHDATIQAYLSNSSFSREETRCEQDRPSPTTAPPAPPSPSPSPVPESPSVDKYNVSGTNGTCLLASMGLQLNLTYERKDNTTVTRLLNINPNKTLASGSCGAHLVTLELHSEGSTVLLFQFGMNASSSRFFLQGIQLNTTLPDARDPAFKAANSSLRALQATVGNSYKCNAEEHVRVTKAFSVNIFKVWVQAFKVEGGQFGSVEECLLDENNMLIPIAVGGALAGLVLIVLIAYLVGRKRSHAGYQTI
Molecule,Binding call [1],Mean fluorescence [1],Binding call ([2]; Table 17 Experiment no1),Mean fluorescence ([2]; Table 17 Experiment no1),Binding call ([2]; Table 17 Experiment no2),Mean fluorescence ([2]; Table 17 Experiment no2),Binding call [3],Mean fluorescence [3],Binding call ([4]; Table 17 Experiment no1),Mean fluorescence ([4]; Table 17 Experiment no1),Binding call ([4]; Table 17 Experiment no2),Mean fluorescence ([4]; Table 17 Experiment no2),Mean fluorescence [5],EC50 [6],Binding call [5]
B1,Binding,888,Binding,680,binding,211,Binding,891,No binding,6,No binding,2,1027,5.5 nM,–
B2,Binding,694,No binding,28,–,–,No binding,27,No binding,28,–,–,105,6.6 nM,Low binding
